Test results: patent publication US20220143153A1, “COMPOSITIONS AND METHODS FOR TREATING ACNE” (priority 2019, published 2022)

System: PBMCs
Test: Cytokine secretion from PBMCs stimulated with nuclease-treated live C. acnes (ELISA)
Type: cell-based, human
Settings: live C. acnes digested with nuclease at 37° C. for 1 hour, PBMCs stimulated 24 h
Method: FIGS. 3A-3D: PBMCs were stimulated with untreated, heat-killed (HK), Rnase I, or Dnase I treated live CA(HL5PA1), CH (HL110PA4), LPS, or 19 kD (TLR1/2L) for 24 h. Cytokine secretions were measured by ELISA.
Cells purification and culture. Whole blood was obtained from healthy donors who provided written informed consent (UCLA Institutional Review Board). PBMCs were isolated by Ficoll-Paque (Amersham Bioscience) density gradient centrifugation and cultured in RPMI 1640 (Gibco) supplemented with 10% fetal bovine serum (FBS) (Seradigm) at a density of 2.5×10^6/mL in a 24-well flat bottomed plate.
Bacterial treatment. Live bacteria were heat-killed at 95° C. for 10 minutes and cooled on ice before addition of bacteria to cell culture. Live bacteria were digested using RNase I (Promega) or DNase I (Invitrogen) and incubated at 37° C. for 1 hour. Nucleases were inactivated with 0.1% SDS.
Cytokine Quantification. Cell culture supernatants were harvested at 24 hours unless otherwise noted. Cytokines measured by sandwich ELISA using antibody pairs were as follows: IL-18, IL-1β, IFN-β (R&D Duoset), IFN-γ (BD), IL-6, IL-10, TNF-α (Invitrogen).

B1: RNase I: RNase I (Promega), enzyme that catalyzes the hydrolysis of RNA; used to digest live bacteria (protein, UniProt P21338 24-268, looked up)
Ribonuclease I: LALQAKQYGDFDRYVLALSWQTGFCQSQHDRNRNERDECRLQTETTNKADFLTVHGLWPGLPKSVAARGVDERRWMRFGCATRPIPNLPEARASRMCSSPETGLSLETAAKLSEVMPGAGGRSCLERYEYAKHGACFGFDPDAYFGTMVRLNQEIKESEAGKFLADNYGKTVSRRDFDAAFAKSWGKENVKAVKLTCQGNPAYLTEIQISIKADAINAPLSANSFLPQPHPGNCGKTFVIDKAGY
- IFN-γ secretion from PBMCs: eliminated
- IL-6 secretion from PBMCs: eliminated
- IL-10 secretion from PBMCs: eliminated
- TNF-α secretion from PBMCs: eliminated
- IFN-γ secretion from PBMCs (listed as RNase): abrogated
